Molecular target: the molecule itself
Experiment: crystal structure; in meso crystals from 10 wt% DSPG/MP swollen mesophase, 20 °C, 0.2 M (NH4)SO4, 0.02 M NaCl, 0.02 M Na acetate pH 4, 33% v/v PEG200; molecular replacement with 4HFI and 4NPQ; 6 Å; closed state

B1: Gloeobacter violaceus ligand-gated ion channel (GLIC) (natural protein)
chain: VSPPPPIADEPLTVNTGIYLIECYSLDDKAETFKVNAFLSLSWKDRRLAFDPVRSGVRVKTYEPEAIWIPEIRFVNVENARDADVVDISVSPDGTVQYLERFSARVLSPLDFRRYPFDSQTLHIYLIVRSVDTRNIVLAVDLEKVGKNDDVFLTGWDIESFTAVVKPANFALEDRLESKLDYQLRISRQYFSYIPNIILPMLFILFISWTAFWSTSYEANVTLVVSTLIAHIAFNILVETNLPKTPYMTYTGAIIFMIYLFYFVAVIEVTVQHYLKVESQPARAASITRASRIAFPVVFLLANIILAFLFF
notes: GLIC, Gloeobacter violaceus ligand-gated ion channel; expressed from pET20-MBP-thrombin-GLIC (N-terminal signal peptide, MBP, thrombin site, GLIC); MBP removed by thrombin; the pentamer is printed as 174 kDa, 1585 amino acids (317 per chain); also called Gloeobacter ligand-gated ion channel; GLIC pentamer; not shown: MBP, N-terminal, cleaved
  stoichiometry N: 5

From article PMC5803273, “Design of ultra-swollen lipidic mesophases for the crystallization of membrane proteins with large extracellular domains” (Nature Communications, 2018)
